Results as given in patent US10058586B2, “Use of human small leucine zipper protein in adipocyte differentiation procedure” (Korea University Research and Business Foundation, priority 2013, dated 2018).

Tests used:
PPARγ2 and HDAC3 = molecular target: T1, PPARγ2 and HDAC3 (Homo sapiens, UniProt P37231); assay: GST pull-down of GST-HDAC3, Myc-PPARγ2 and Flag-sLZIP in 293T cells; assay type: binding; settings: in the presence of ligand (10 nM RZD)
T1 construct: expressed in transfected cells; host or cells: 293T cells
T1 sequence (P37231 1-505): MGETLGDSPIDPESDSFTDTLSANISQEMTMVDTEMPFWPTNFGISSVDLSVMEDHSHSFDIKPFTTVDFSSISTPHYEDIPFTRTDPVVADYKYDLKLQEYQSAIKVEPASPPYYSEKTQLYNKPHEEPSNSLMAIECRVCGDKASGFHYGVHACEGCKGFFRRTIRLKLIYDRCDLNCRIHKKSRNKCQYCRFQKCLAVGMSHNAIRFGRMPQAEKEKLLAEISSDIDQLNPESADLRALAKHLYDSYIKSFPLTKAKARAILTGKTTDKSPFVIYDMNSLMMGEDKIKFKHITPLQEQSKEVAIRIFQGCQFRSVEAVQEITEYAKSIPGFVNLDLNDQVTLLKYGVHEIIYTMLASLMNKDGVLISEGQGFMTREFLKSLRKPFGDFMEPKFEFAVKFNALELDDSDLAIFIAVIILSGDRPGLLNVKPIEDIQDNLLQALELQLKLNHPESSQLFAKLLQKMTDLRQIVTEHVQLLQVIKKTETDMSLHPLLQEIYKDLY
Description: Therefore, in order to understand a regulation mechanism of sLZIP in the PPARγ2 transcriptional activity by binding to the FABP4 promoter region, an effect of sLZIP on the interaction between PPARγ2 and HDAC3 was examined. For this purpose, 293T cells were transfected with GST-HDAC3, Myc-PPARγ2 and Flag-sLZIP, and were treated or not treated with 10 nM of RZD for 24 hours. Cell lysates were subjected to GST pull-down analysis using a glutathione 4B bead, and a protein complex was analyzed in SDS-PAGE, and then immunoblotted with anti-GST, anti-Myc and anti-Flag antibodies (FIG. 6A). GST-HDAC3, GST-PPARγ2, Myc-PPARγ2, Flag-sLZIP and Ha-UB were expressed in the 293T cells, and the cells were treated with 10 nM of RZD for 24 hours. Cell lysates were subjected to GST pull-down analysis (FIG. 6B). GST-PPARγ2 and Flag-sLZIP were expressed in the 293T cells and treated with 10 nM of RZD for 24 hours. Cell lysates were subjected to GST pull-down analysis, and a protein complex was analyzed in SDS-PAGE, and then immunoblotted with anti-PGC1α, anti-GST and anti-Flag antibodies (FIG. 6C).

[1] = tested on: primary preadipocytes and mouse embryonic fibroblasts (MEFs); assay: Adipocyte differentiation of primary preadipocytes and MEFs isolated from sLZIP TG mice; assay type: cell-based; settings: cells isolated from sLZIP TG mice vs wild type mice
Description: In order to generate human sLZIP transgenic (TG) mice, sLZIP genes were cloned into a pCMV-flag expression vector. The sLZIP TG mice were generated by Macrogen, Inc (Seoul, Korea). Transgenic founders were mated with wild type C57BL/6 mice to produce F1 heterozygotes. F1-F4 generations were genetically screened for transgenes at an age of 2 weeks old. The following two primers were used to amplify genomic DNA in order to identify wild type and TG mice: [NT] and 5'-[NT]3.' Adipocyte differentiation is a well-regulated procedure. PPARγ2 is a major regulator of adipogenesis, is highly expressed during adipocyte differentiation, and regulates expression of genes involved in adipogenesis. An effect of sLZIP on adipogenesis in vivo was examined. For this purpose, in order to produce human sLZIP transgenic mice, sLZIP genes were cloned in a pCMV-flag expression vector. The sLZIP TG mice were produced in Macrogen, Inc (Seoul, Korea) (FIG. 8A). Preadipocytes were isolated from epididymal adipose tissues of sLZIP TG mice. […] A promoter activity was measured according to luciferase analysis (FIG. 8B). […] Total RNA was extracted from the cells, and an mRNA expression level of mouse LZIPs was measured using RT-PCR analysis. […] Total RNA was isolated from the cells, and an mRNA expression level of mouse LZIPs was measured using RT-PCR (FIG. 9C) and real-time PCR (FIG. 9D).

B1: sLZIP: human small leucine-zipper protein, isoform of LZIP, 354 amino acids, no transmembrane domain; GenBank FJ263669, SEQ ID NO: 1 (protein, listed as Homo sapiens)
chain: MELELDAGDQDLLAFLLEESGDLGTAPDEAVRAPLDWALPLSEVPSDWEVDDLLCSLLSPPASLNILSSSNPCLVHHDHTYSLPRETVSMDLESESCRKEGTQMTPQHMEELAEQEIARLVLTDEEKSLLEKEGLILPETLPLTKTEEQILKRVRRKIRNKRSAQESRRKKKVYVGGLESRVLKYTAQNMELQNKVQLLEEQNLSLLDQLRKLQAMVIEISNKTSSSSMYSSDTRGSLPAEHGVLSRQLRALPSEDPYQLELPALQSEVPKDSTHQWLDGSDCVLQAPGNTSCLLHYMPQAPSAEPPLEWPFPDLFSEPLCRGPILPLQANLTRKGGWLPTGSPSVILQDRYSG
- effect on interaction between PPARγ2 and HDAC3 (GST pull-down) (PPARγ2 and HDAC3): enhanced interaction between PPARγ2 and HDAC3
- adipocyte differentiation [1]: inhibited more than in wild type mice
